From patent publication US20250313626A1 (HARBOUR BIOMED SHANGHAI, published 2025) come the findings set out here.

The target of one assay is T1, Mouse CD200R1-His (mouse, UniProt Q9ES57 26-238, limits assumed).
T1 sequence (looked up): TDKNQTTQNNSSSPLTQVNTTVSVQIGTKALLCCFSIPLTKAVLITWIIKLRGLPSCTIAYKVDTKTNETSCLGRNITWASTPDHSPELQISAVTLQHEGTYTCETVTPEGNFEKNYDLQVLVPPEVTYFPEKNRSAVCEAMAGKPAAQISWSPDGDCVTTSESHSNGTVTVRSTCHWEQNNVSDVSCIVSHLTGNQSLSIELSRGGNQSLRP
Nature of the assay: BLI (Octet), antibody captured on anti-human Fc sensor. How it is done:
(§1) To determine the binding affinities of the anti-CD200R1 antibodies to CD200R1a proteins of various species (mouse, human, Cynomolgus macaques), bio-layer interferometry (BLI) assays were carried out using an Octet® RED96e instrument. Antibodies were produced as described in Example 3.4 and diluted to 5 μg/mL using freshly prepared 1× kinetic buffer (10× kinetic buffer (Catalog #18-1105, ForteBio) was diluted with PBS(Catalog #E607016-0500, BBI Life Sciences)) and were captured on the surface of anti-human Fc (AHC) Octet biosensors (Catalog #18-5060, ForteBio) to reach capture levels between 0.9-1.2 nm. The biosensors having the captured anti-CD200R1 antibodies were then dipped in wells containing 2-fold serial dilutions of CD200R1a proteins to detect association signals, followed by dissociation steps in wells containing 1× kinetic buffer. The sensorgrams were recorded and the reference signals were subtracted before curve fitting using ForteBio Data Analysis 11.0 software. Association rates (kₒₙ) and dissociation rates (koff) were calculated using a simple one-to-one Langmuir binding model. The equilibrium dissociation constant (KD) was calculated as the ratio of koff/kₒₙ.

Assay [1] addresses T2, human CD200R1a protein (soluble recombinant) (human, UniProt Q8TD46 29-265).
T2 construct: Soluble protein used in BLI; also called human CD200R1 isoform a; not shown: His tag implied by capture on anti-Penta-HIS biosensors
T2 sequence: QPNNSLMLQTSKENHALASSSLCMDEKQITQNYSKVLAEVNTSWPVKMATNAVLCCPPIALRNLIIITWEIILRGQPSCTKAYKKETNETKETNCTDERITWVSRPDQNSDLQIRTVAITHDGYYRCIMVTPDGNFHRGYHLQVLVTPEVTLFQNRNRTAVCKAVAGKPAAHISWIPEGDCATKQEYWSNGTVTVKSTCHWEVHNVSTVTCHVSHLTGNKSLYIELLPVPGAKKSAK
Nature of the assay: BLI (Octet), antibody captured on anti-human Fc sensor, soluble CD200R1a as analyte, 1:1 fit. As for the experimental part:
as §1
A general note: BLI is a label-free optical method that tracks binding on a fibre tip over time.

The next assay concerns the target T3, Cyno CD200R1a-His (Cynomolgus macaques, UniProt Q8TD46 25-265 (human entry)).
T3 construct: Soluble protein used in BLI; also called Cynomolgus macaques CD200R1a recombinant protein; not shown: His tag
T3 chain: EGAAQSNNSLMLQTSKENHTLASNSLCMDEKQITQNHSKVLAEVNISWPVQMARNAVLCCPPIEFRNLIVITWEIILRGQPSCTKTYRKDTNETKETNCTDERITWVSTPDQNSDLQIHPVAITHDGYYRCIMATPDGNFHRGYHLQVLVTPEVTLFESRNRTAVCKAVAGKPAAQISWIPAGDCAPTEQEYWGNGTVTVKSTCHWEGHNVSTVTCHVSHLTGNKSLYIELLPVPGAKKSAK
Described as above. How it is done:
as §1

Assay [2] concerns the target T2, human CD200R1a protein (soluble …). Nature of the assay: BLI in-tandem competition on His-captured human CD200R1a; row = 1st Ab (400 nM); competitor (2nd Ab) PR007221. As for the experimental part: (§2) To determine if the anti-CD200R1 antibodies bind to human CD200R1a on different or approximate binding epitopes, epitope competition experiments for the anti-CD200R1 antibodies were performed by the ForteBlio Octet® RED96e platform. […] The in-tandem competition assay format was applied, and it contained two association steps. Firstly, the antigen-loaded biosensors bound to each antibody (i.e., First antibody, 1st Ab) at a saturating concentration of 400 nM for 300 seconds to reach equilibrium and then secondly bound to the competing antibodies (i.e., Second antibody, 2nd Ab) of 400 nM for 300 seconds. The second binding signals are recorded as the 100% signal of each antibody when the first antibodies are replaced by kinetic buffer. All the binding data were analyzed using ForteBlio Data Analysis 11.0 software. The inhibition rate was calculated by the following formula: […]

Assay [3] has the same target. Nature of the assay: BLI in-tandem competition on His-captured human CD200R1a; row = 1st Ab (400 nM); competitor (2nd Ab) PR006207. How it is done: as §2
Assay [4] has as its target T4, human CD200R1 isoform a on CHOK1 cells (CHOK1/hCD200R1a) (human, UniProt Q8TD46 25-348).
T4 construct: also called CHOK1/CD200R1a
T4 sequence: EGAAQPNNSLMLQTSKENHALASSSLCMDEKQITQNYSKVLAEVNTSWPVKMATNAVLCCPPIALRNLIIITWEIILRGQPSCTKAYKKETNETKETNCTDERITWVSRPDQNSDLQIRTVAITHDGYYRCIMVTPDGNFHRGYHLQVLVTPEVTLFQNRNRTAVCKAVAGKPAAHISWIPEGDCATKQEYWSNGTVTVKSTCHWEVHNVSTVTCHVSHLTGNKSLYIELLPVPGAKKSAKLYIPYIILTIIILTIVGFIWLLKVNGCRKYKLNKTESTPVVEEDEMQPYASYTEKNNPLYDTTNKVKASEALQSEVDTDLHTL
Kind of assay: flow cytometry, CHOK1/hCD200R1a cells (FITC-Mean); table beside the curves, head without unit, x axis Log [Ab] (nM).

B1: PR005509 (antibody, human IgG1, kappa, L234A L235A, V domains shown)
VH: QVQLVESGGGVVQPGRSLRLSCAASGFTFSSYGFHWVRQAPGKGLEWLGLIWSDGSNKYYADSVKGRFTISRDNSKNTLYLQMNSLRAEDTAVYYCARDRIVGAGFDYWGQGTLVTVSS
VL: not shown
The Kd is the concentration at which binding is half-saturated. As usually defined, the koff is the rate constant with which the complex falls apart. In general, kon refers to the rate constant with which the complex forms. Regarding B1, the binding result with Mouse CD200R1-His was “no binding”. Further, in assay [1], the Kd amounted to 7.74 nM, the koff is 0.000511 s⁻¹ and the kon came out at 66100 M⁻¹ s⁻¹. For the same molecule, in the assay with Cyno CD200R1a-His, binding was put at a Kd of 146 nM, the koff came out at 0.0275 s⁻¹ and the kon turned out to be 189000 M⁻¹ s⁻¹.

B2: PR005474 (antibody, human IgG1, kappa, L234A L235A, V domains shown)
VH: QVQLVESGGGVVQPGRSLRLSCAASAFTFSSYGMHWVRQAPGKGLEWVALIWNDGSNKFYADSVKGRFTISRDNSKNTLFLQMNSLRAEDTAVYYCARDRILGAGFDYWGQGTLVTVSS
VL: not shown
Regarding B2, the binding result with Mouse CD200R1-His was “no binding”. Also, in assay [1], the dissociation constant Kd stood at 16.6 nM, the off-rate constant (koff) was 0.00101 s⁻¹ and the kon was 60700 M⁻¹ s⁻¹. In the assay with Cyno CD200R1a-His, this molecule displayed an equilibrium dissociation constant (Kd) of 147 nM, an off-rate constant (koff) of 0.0287 s⁻¹ and a kon of 196000 M⁻¹ s⁻¹.

B3: PR007973 (antibody, human IgG1, kappa, V domains shown)
VH: QVQLVESGGGVVQPGRSLRLSCAASGFTFSSYGFHWVRQAPGKGLEWLGIIWSDASNKYYADSVKGRFTISRDNSKNTLYLQMNSLRAEDTAVYYCARDRIVGEGFDYWGQGTLVTVSS
VL: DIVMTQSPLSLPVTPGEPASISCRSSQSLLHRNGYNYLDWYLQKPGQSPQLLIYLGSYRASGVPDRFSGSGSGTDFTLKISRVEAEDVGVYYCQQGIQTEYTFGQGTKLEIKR
notes: PTM variant of PR006839 (human IgG1)
B3: the binding result in the assay with Mouse CD200R1-His is given as “no binding”. The “Inhibition ratio (%)” value in assay [2] stood at 100%. Also, in assay [1], the dissociation constant Kd turned out to be 1.06 nM, the dissociation rate constant (koff) is 5.97e-05 s⁻¹ and the kon amounted to 56200 M⁻¹ s⁻¹. In the assay with Cyno CD200R1a-His, this molecule had a Kd of 10.2 nM, a dissociation rate constant (koff) of 0.000151 s⁻¹ and a kon of 14900 M⁻¹ s⁻¹. Further, in assay [3], the “Inhibition ratio (%)” value was -44.7%.

B4: PR002906 (antibody, V domains shown)
VH: QVQLQESGPGLVKPSETLSLTCTVSGYTITSGYDWSWIRQPPGKGLEWIGYINYGGSTNYKPSLGSRVTISVDTSKNQFSLKLSSVTAADTAVYYCARYNEYKSYIYDWYFDFWGQGTLVTVSS
VL: DIQMTQSPSSLSASVGDRVTITCKASKNIRSYLAWYQQKPGKAPKLLIYSGSTLHSGVPSRFSGSGSGTDFTLTISSLQPEDFATYYCQQHHEYPLTFGQGTKVEIKR
notes: also called recombinant IgG1 antibody of huDX182
For orientation: EC50 means the concentration that produces a half-maximal response. The low end stands for higher potency in that assay, the high end for lower potency in that assay. As to B4, in assay [1], the Kd is 39.3 nM, the off-rate (koff) stood at 0.00341 s⁻¹ and the kon stood at 86700 M⁻¹ s⁻¹. This molecule gave an EC50 in assay [4] of 0.292 nM.

B5: PR006480 (antibody, human IgG1, kappa, L234A L235A)
heavy: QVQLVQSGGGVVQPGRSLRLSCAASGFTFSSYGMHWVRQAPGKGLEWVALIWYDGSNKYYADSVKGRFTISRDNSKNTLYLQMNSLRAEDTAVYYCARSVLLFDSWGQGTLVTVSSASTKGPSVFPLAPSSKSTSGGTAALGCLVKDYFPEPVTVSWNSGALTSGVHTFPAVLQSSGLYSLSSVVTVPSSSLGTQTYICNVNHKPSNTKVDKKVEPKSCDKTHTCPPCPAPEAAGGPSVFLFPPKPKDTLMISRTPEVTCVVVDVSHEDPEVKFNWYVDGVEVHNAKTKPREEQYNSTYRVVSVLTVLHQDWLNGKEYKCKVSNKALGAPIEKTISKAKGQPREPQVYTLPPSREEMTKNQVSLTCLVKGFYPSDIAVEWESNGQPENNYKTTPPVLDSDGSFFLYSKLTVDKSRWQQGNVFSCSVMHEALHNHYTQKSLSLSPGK
light: DIQMTQSPPSLSASVGDRVTITCRASQSISSYLNWFQQKAGKAPKLLISATSNLQSGVPSRFSGSGSGTDFTLTISSLQPEDLATYYCQQSYSSPYTFGQGTKVEIKRTVAAPSVFIFPPSDEQLKSGTASVVCLLNNFYPREAKVQWKVDNALQSGNSQESVTEQDSKDSTYSLSSTLTLSKADYEKHKVYACEVTHQGLSSPVTKSFNRGEC
notes: also called PR6480
On to B5, for which, in the assay with Mouse CD200R1-His, the binding result is listed as “no binding”. Moreover, in assay [1], the equilibrium dissociation constant (Kd) is 14.3 nM, the koff was 0.000476 s⁻¹ and the kon came out at 33300 M⁻¹ s⁻¹. Also, in the assay with Cyno CD200R1a-His, the affinity, expressed as Kd, was 104 nM; the koff was found to be 0.00713 s⁻¹; the association rate constant (kon) was found to be 68500 M⁻¹ s⁻¹. The molecule also had an EC50 in assay [4] of 0.124 nM.

B6: PR007221 (antibody, human IgG1, kappa)
heavy: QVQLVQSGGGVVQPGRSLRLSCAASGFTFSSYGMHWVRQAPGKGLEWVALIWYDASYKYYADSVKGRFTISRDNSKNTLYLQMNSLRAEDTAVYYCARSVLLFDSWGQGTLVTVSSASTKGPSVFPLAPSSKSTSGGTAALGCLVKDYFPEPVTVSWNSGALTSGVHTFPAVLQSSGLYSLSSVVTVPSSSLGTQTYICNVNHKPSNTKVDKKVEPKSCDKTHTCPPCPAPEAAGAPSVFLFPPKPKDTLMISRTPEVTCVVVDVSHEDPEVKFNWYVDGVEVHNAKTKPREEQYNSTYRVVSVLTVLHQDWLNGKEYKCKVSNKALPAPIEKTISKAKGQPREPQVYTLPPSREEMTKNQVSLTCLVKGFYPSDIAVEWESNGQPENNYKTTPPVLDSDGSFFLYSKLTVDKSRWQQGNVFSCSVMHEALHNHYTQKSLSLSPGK
light: DIQLTQSPPSLSASVGDRVTITCRASQSISSYLNWFQQKAGKAPKLLISATSNLQSGVPSRFSGSGSGTDFTLTISSLQPEDLATYYCQQTLSSPYTFGQGTKVEIKRTVAAPSVFIFPPSDEQLKSGTASVVCLLNNFYPREAKVQWKVDNALQSGNSQESVTEQDSKDSTYSLSSTLTLSKADYEKHKVYACEVTHQGLSSPVTKSFNRGEC
notes: PTM variant of PR006895 (human IgG1)
As for B6, in the assay with Mouse CD200R1-His, the binding result was “no binding”. Also, in assay [2], the “Inhibition ratio (%)” value was 100%. Further, in assay [1], the equilibrium dissociation constant (Kd) came to 4.34 nM, the koff was 0.000211 s⁻¹ and the kon was determined as 48600 M⁻¹ s⁻¹. For the same molecule, in the assay with Cyno CD200R1a-His, binding was characterised by a dissociation constant (Kd) of 12.5 nM, the koff was 0.000776 s⁻¹ and the association rate constant (kon) amounted to 62100 M⁻¹ s⁻¹. Also, the EC50 in assay [4] is 0.172 nM. The “Inhibition ratio (%)” value in assay [3] is -40.7%.

B7: PR007223 (antibody, human IgG1, kappa)
heavy: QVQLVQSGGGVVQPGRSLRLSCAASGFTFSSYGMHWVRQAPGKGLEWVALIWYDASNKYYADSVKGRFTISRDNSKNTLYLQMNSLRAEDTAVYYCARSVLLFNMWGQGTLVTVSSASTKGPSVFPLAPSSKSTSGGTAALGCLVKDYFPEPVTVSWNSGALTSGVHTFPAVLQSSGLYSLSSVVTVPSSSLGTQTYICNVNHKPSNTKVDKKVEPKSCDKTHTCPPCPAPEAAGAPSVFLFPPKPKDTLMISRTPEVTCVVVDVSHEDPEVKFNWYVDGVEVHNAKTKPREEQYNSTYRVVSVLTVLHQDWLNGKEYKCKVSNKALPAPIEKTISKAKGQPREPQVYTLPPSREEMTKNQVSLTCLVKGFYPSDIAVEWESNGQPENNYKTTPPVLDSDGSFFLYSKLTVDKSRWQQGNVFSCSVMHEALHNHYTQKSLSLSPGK
light: DIQLTQSPPSLSASVGDRVTITCRASQSISSYLNWFQQKAGKAPKLLISATSNLQSGVPSRFSGSGSGTDFTLTISSLQPEDLATYYCQQTYSSPYTFGQGTKVEIKRTVAAPSVFIFPPSDEQLKSGTASVVCLLNNFYPREAKVQWKVDNALQSGNSQESVTEQDSKDSTYSLSSTLTLSKADYEKHKVYACEVTHQGLSSPVTKSFNRGEC
notes: as for B6
Regarding B7, the binding result in the assay with Mouse CD200R1-His is recorded as “no binding”. Moreover, in assay [2], the “Inhibition ratio (%)” value is 101%. In assay [1], the dissociation constant (Kd) came out at 2.07 nM, the koff amounted to 0.000133 s⁻¹ and the kon is 64200 M⁻¹ s⁻¹. In the assay with Cyno CD200R1a-His, the affinity, expressed as Kd, was 16.3 nM; the koff amounted to 0.0014 s⁻¹; the association rate constant (kon) stood at 86000 M⁻¹ s⁻¹. This molecule also had an EC50 in assay [4] of 0.133 nM. The “Inhibition ratio (%)” value in assay [3] was -50.2%.
